These results are taken from patent US20120077957A1 (PALATIN TECHNOLOGIES, published 2012).

What is called Ki is a dissociation constant, usually derived from enzyme kinetics or from competition with a known ligand.

Numbered stars: 1 amine (or outer) side, 2 acyl side, 3 side chain; on linkers, the order of the positions; unused ones are H or OH. Bridge positions count the residues as written; N and C are the ends. Square brackets hold non-standard residues; d marks the D form. * marks the point of attachment. Ser(Bzl) = O-benzyl-serine, O=C([C@H](COCc1ccccc1)N[*:1])[*:2]; Pro(trans-4-NH2) = O=C([C@@H]1C[C@@H](N[*:3])CN1[*:1])[*:2]; Nle = CCCC[C@H](N)C(=O)O; Orn = NCCC[C@H](N)C(=O)O; Dab = NCC[C@H](N)C(=O)O; Bn = c1ccc(C*)cc1

B1: Peptide No. 33: Ac-Arg-cyclo(Glu-Orn(Acetyl)-D-Phe-Arg-Trp-Orn)-NH2 (peptide)
peptide: Ac-RE[Orn](Ac)[dF]RW[Orn]-NH2
modifications: lactam 2-7
B2: Peptide No. 17: Ac-Arg-cyclo(Glu-Ser(Bzl)-D-Phe-Arg-Trp-Orn)-OH (peptide)
peptide: Ac-RE[Ser(Bzl)][dF]RW[Orn]-OH
modifications: lactam 2-7
B3: Peptide No. 34: Ac-Arg-cyclo(Glu-Asn-D-Phe-Arg-Trp-Orn)-NH2 (peptide)
peptide: Ac-REN[dF]RW[Orn]-NH2
modifications: lactam 2-7
B4: Peptide No. 32: Ac-Arg-cyclo(Glu-Pro(4R-NH2)-D-Phe-Arg-Trp-Orn)-NH2 (peptide)
peptide: Ac-RE[Pro(trans-4-NH2)][dF]RW[Orn]-NH2
modifications: lactam 2-7
B5: Peptide No. 20: Ac-Arg-cyclo(Glu-Asn-D-Phe-Arg-Trp-Orn)-OH (peptide)
peptide: Ac-REN[dF]RW[Orn]-OH
modifications: lactam 2-7
B6: Peptide No. 8: Ac-Arg-cyclo(Glu-Orn-D-Phe-Arg-Trp-Orn)-NH2 (peptide)
peptide: Ac-RE[Orn][dF]RW[Orn]-NH2
modifications: lactam 2-7
B7: Peptide No. 21: Ac-cyclo(Glu-Gln-D-Phe-Arg-Trp-Orn)-NH2 (peptide)
peptide: Ac-EQ[dF]RW[Orn]-NH2
modifications: lactam 1-6
SMILES: CC(=O)N[C@H]1CCC(=O)NCCC[C@@H](C(N)=O)NC(=O)[C@H](Cc2c[nH]c3ccccc23)NC(=O)[C@H](CCCNC(=N)N)NC(=O)[C@@H](Cc2ccccc2)NC(=O)[C@H](CCC(N)=O)NC1=O
B8: Asp...Lys analog of peptides No. 17 and No. 48: Ac-Arg-cyclo(Asp-Ser(Bzl)-D-Phe-Arg-Trp-Lys)-OH (peptide)
peptide: Ac-RD[Ser(Bzl)][dF]RWK-OH
modifications: lactam 2-7
notes: also called Peptide Structure (Asp...Lys) in the rows of No. 17 and No. 48
B9: Asp...Lys analog of peptides No. 34 and No. 46: Ac-Arg-cyclo(Asp-Asn-D-Phe-Arg-Trp-Lys)-NH2 (peptide)
peptide: Ac-RDN[dF]RWK-NH2
modifications: lactam 2-7
SMILES: CC(=O)N[C@@H](CCCNC(=N)N)C(=O)N[C@H]1CC(=O)NCCCC[C@@H](C(N)=O)NC(=O)[C@H](Cc2c[nH]c3ccccc23)NC(=O)[C@H](CCCNC(=N)N)NC(=O)[C@@H](Cc2ccccc2)NC(=O)[C@H](CC(N)=O)NC1=O
notes: also called Peptide Structure (Asp...Lys) in the rows of No. 34 and No. 46
B10: Peptide No. 37: Ac-Arg-cyclo(Orn-His-D-Phe-Arg-Trp-Glu)-OH (peptide)
peptide: Ac-R[Orn]H[dF]RWE-OH
modifications: lactam 2-7
B11: Peptide No. 47: Ac-Arg-cyclo(Orn-Pro-D-Phe-Arg-Trp-Glu)-NH2 (peptide)
peptide: Ac-R[Orn]P[dF]RWE-NH2
modifications: lactam 2-7
B12: Peptide No. 48: Ac-Arg-cyclo(Orn-Ser(Bzl)-D-Phe-Arg-Trp-Glu)-OH (peptide)
peptide: Ac-R[Orn]S(Bn)[dF]RWE-OH
modifications: lactam 2-7
B13: Peptide No. 40: Ac-Lys-cyclo(Orn-His-D-Phe-Arg-Trp-Glu)-NH2 (peptide)
peptide: Ac-K[Orn]H[dF]RWE-NH2
modifications: lactam 2-7
B14: Peptide No. 41: Ac-Arg-cyclo(Orn-Ala-D-Phe-Arg-Trp-Glu)-NH2 (peptide)
peptide: Ac-R[Orn]A[dF]RWE-NH2
modifications: lactam 2-7
SMILES: CC(=O)N[C@@H](CCCNC(=N)N)C(=O)N[C@H]1CCCNC(=O)CC[C@@H](C(N)=O)NC(=O)[C@H](Cc2c[nH]c3ccccc23)NC(=O)[C@H](CCCNC(=N)N)NC(=O)[C@@H](Cc2ccccc2)NC(=O)[C@H](C)NC1=O
B15: Peptide No. 36: Ac-Nle-cyclo(Orn-His-D-Phe-Arg-Trp-Glu)-NH2 (peptide)
peptide: Ac-[Nle][Orn]H[dF]RWE-NH2
modifications: lactam 2-7
B16: Peptide No. 43: Ac-Arg-cyclo(Orn-Dab-D-Phe-Arg-Trp-Glu)-NH2 (peptide)
peptide: Ac-R[Orn][Dab][dF]RWE-NH2
modifications: lactam 2-7
B17: Peptide No. 39: Ac-D-Arg-cyclo(Orn-His-D-Phe-Arg-Trp-Glu)-NH2 (peptide)
peptide: Ac-[dR][Orn]H[dF]RWE-NH2
modifications: lactam 2-7
B18: Peptide No. 35: Ac-Nle-cyclo(Orn-His-D-Phe-Arg-Trp-Glu)-OH (peptide)
peptide: Ac-[Nle][Orn]H[dF]RWE-OH
modifications: lactam 2-7
B19: Peptide No. 38: Ac-Arg-cyclo(Orn-His-D-Phe-Arg-Trp-Glu)-NH2 (peptide)
peptide: Ac-R[Orn]H[dF]RWE-NH2
modifications: lactam 2-7
B20: Asp...Lys analog of peptide No. 40: Ac-Lys-cyclo(Asp-His-D-Phe-Arg-Trp-Lys)-NH2 (peptide)
peptide: Ac-KDH[dF]RWK-NH2
modifications: lactam 2-7
SMILES: CC(=O)N[C@@H](CCCCN)C(=O)N[C@H]1CC(=O)NCCCC[C@@H](C(N)=O)NC(=O)[C@H](Cc2c[nH]c3ccccc23)NC(=O)[C@H](CCCNC(=N)N)NC(=O)[C@@H](Cc2ccccc2)NC(=O)[C@H](Cc2c[nH]cn2)NC1=O
notes: also called Peptide Structure (Asp...Lys) in the row of No. 40
B21: Asp...Lys analog of peptide No. 47: Ac-Arg-cyclo(Asp-Pro-D-Phe-Arg-Trp-Lys)-NH2 (peptide)
peptide: Ac-RDP[dF]RWK-NH2
modifications: lactam 2-7
notes: also called Peptide Structure (Asp...Lys) in the row of No. 47
B22: Asp...Lys analog of peptide No. 41: Ac-Arg-cyclo(Asp-Ala-D-Phe-Arg-Trp-Lys)-NH2 (peptide)
peptide: Ac-RDA[dF]RWK-NH2
modifications: lactam 2-7
notes: also called Peptide Structure (Asp...Lys) in the row of No. 41
B23: Asp...Lys analog of peptide No. 45: Ac-D-Arg-cyclo(Asp-Gln-D-Phe-Arg-Trp-Lys)-NH2 (peptide)
peptide: Ac-[dR]DQ[dF]RWK-NH2
modifications: lactam 2-7
notes: also called Peptide Structure (Asp...Lys) in the row of No. 45

One assay deals with T1, human melanocortin-4 receptor (recombinant hMC4-R) (human, UniProt P32245 1-332). The assay can be described thus: cell-based or functional assay.
T1 sequence (P32245 whole entry): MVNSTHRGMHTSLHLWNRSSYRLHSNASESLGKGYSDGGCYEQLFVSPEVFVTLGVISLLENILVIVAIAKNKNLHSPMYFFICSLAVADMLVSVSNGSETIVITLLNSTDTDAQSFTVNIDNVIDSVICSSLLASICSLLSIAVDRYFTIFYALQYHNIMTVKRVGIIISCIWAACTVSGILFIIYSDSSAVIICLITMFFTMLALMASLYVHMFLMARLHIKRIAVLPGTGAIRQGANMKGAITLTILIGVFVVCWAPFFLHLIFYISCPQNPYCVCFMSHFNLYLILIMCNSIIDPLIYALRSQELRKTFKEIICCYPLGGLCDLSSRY
For the molecule B1, the “Ec50 (nM), cAMP” value is 3 nM and the “Emax (%), cAMP” value is 90%.
B2: the “Emax (%), cAMP” value turned out to be 55%.
As for B3, the “Ec50 (nM), cAMP” value was determined as 0.4 nM and the “Emax (%), cAMP” value is 91%.
On to B4, for which the “Emax (%), cAMP” value turned out to be 55%.
In the case of B5, the “Ec50 (nM), cAMP” value came to 12 nM and the “Emax (%), cAMP” value amounted to 76%.
The corresponding values for B6 are 0.4 nM and 95%.
The corresponding values for B7 are 26 nM and 49%.
The corresponding values for B8 are 5 nM and 38%.
With B9, the “Ec50 (nM), cAMP” value is 42 nM and the “Emax (%), cAMP” value turned out to be 91%.

The target in a further assay is T1, human melanocortin-4 receptor …. As to the kind of experiment: cell-based or functional assay. This is another data set of the same source.
For the molecule B10, the “Ec50 (nM), cAMP” value came to 0.6 nM and the “Emax (%), cAMP” value amounted to 88%.
Take B11: the “Ec50 (nM), cAMP” value came to 6 nM and the “Emax (%), cAMP” value was 54%.
Take B12: the “Ec50 (nM), cAMP” value worked out at 3 nM and the “Emax (%), cAMP” value came to 50%.
The corresponding values for B13 are 0.2 nM and 114%.
The corresponding values for B14 are 7 nM and 52%.
The corresponding values for B15 are 0.2 nM and 85%.
With B16, the “Ec50 (nM), cAMP” value is 0.1 nM and the “Emax (%), cAMP” value stood at 103%.
The corresponding values for B17 are 0.2 nM and 103%.
Regarding B18, the “Emax (%), cAMP” value turned out to be 97%.
For B19, the “Ec50 (nM), cAMP” value worked out at 1 nM and the “Emax (%), cAMP” value was 84%.
Consider B20, for which the “Ec50 (nM), cAMP” value is 5 nM and the “Emax (%), cAMP” value is 85%.
The corresponding values for B8 are 5 nM and 38%.
The corresponding values for B21 are 9 nM and 43%.
The corresponding values for B22 are 37 nM and 74%.
With B23, the “Emax (%), cAMP” value was determined as 89%.
On to B9, for which the “Ec50 (nM), cAMP” value amounted to 42 nM and the “Emax (%), cAMP” value was 91%.

For the next assay the target is unchanged. As to the kind of experiment: competition with labelled NDP-α-MSH ([I125] or Eu), hMC4-R HEK-293 membranes. The method, then: (§1) After incubation for 60 minutes at 37° C., the assay mixture was filtered and the membranes washed three times with ice-cold buffer. Filters were dried and counted in a gamma counter for bound radioactivity. […] Maximal specific binding (100%) was defined as the difference in radioactivity (cpm) bound to cell membranes in the absence and presence of 1 μM NDP-α-MSH. […] Ki values for test peptides of the present invention were determined using Graph-Pad Prism® curve-fitting software.
(§2) After incubation for 90 minutes at 37° C., the reaction was stopped by filtration over AcroWell 96-well filter plates (Pall Life Sciences). The filter plates were washed 4 times with 200 μL of ice-cold phosphate-buffered saline. DELFIA Enhancement solution (PerkinElmer Life Sciences) was added to each well. The plates were incubated on a shaker for 15 minutes and read at 340 nm excitation and 615 nm emission wavelengths. Each assay was conducted in duplicate and mean values were utilized. Ki values were determined by curve-fitting with Graph-Pad Prism® software using a one-site fixed-slope competition binding model.
Regarding B1, the Ki turned out to be 7 nM.
The same measure, in the same setting: for B2 the value was 6 nM; for B3, 6 nM; for B4, 6 nM.
On the same count and under the same terms, for B5 the value was 167 nM; for B6, 9 nM.
Still for that read-out and setting: for B7 the value was 74 nM.
B8: the Ki is 9 nM.
Still for that read-out and setting: for B9 the value was 32 nM.

For the next assay the target is unchanged. The assay is described as above. This is another data set of the same source. The protocol: as §1, §2
On to B10, for which the Ki amounted to 12 nM.
Same read-out and setting: in the case of B11 it was 5 nM; in that of B12, 5 nM.
The same measure, in the same setting: in the case of B13 it was 3 nM; in that of B14, 19 nM; in that of B15, 0.2 nM.
With B16, the Ki amounted to 3 nM.
Consider B17, for which the Ki worked out at 4 nM.
Same read-out and setting: in the case of B18 it was 1 nM.
As for B19, the Ki stood at 1 nM.
As to B20, the Ki is 9 nM.
The same measure, in the same setting: in the case of B8 it was 9 nM.
The same measure, in the same setting: in the case of B21 it was 17 nM; in that of B22, 19 nM.
Still for that read-out and setting: in the case of B23 it was 45 nM; in that of B9, 32 nM.
